Source: PMC12314576, “The Actin‐Binding Prolyl‐Isomerase Par17 Sustains Its Substrate Selectivity by Interdomain Allostery” (Proteins, 2025)

Test system: T1, C[C@H](NC(=O)CCC(=O)O)C(=O)N[C@@H](CCCCN)C(=O)N1CCC[C@H]1C(=O)N[C@@H](Cc1ccccc1)C(=O)Nc1ccc([N+](=O)[O-])cc1
T1 construct: GST-His6 (PreScission site) (N, cleaved yes); made in house; host or cells: E. coli BL21 (DE3) T1r
Experiment: Protease-coupled isomerase assay (PPIase assay) with the catalytic domain
Type: biochemical, human
Settings: other: as quoted in running text; pH 6.8; 10.0 °C
Experimental: To determine the catalytic efficiency and substrate specificity of Par14 and Par17, we performed a protease‐coupled assay. In this assay, the trans form of a para‐nitroaniline (pNA) tagged model substrate is cleaved by chymotrypsin, and the resulting change in absorption at 390 nm due to free pNA is measured. When the model substrate is added to the protease‐containing buffer, all trans‐Xaa‐Pro isomers are immediately cleaved by chymotrypsin. Therefore, the extent of the first signal burst observed in the absorption spectrum correlates with the amount of trans isomers of the model substrate formed during the experimental dead time. […] The newly formed trans‐Xaa substrates are immediately cleaved, and isomerization can thus be monitored over time (Figure 2). Eighteen different substrate peptides with varying amino acids at the Xaa position (Suc‐Ala‐Xaa‐Pro‐Phe‐pNa) were measured to determine the isomerase activity and substrate selectivity of Par14 (Par17Δ1–25), Par17, and the catalytic domain (Par17Δ1–60) (Table S1). […]
We determined the isomerase activity using the PPIase assay described by. […] A baseline was recorded for 5 min (Cary 100Bio UV/Vis spectrophotometer, Varian/Agilent, Santa Clara, US, λ: 390 nm, bandwidth: 1.0 nm, average time between measurements: 0.5 s, temperature: 10°C). […] The solution was mixed by inverting the cuvette three times and the reaction was recorded for 15 min. […]

Chain of PPIase domain (Par17Δ1-60) (Homo sapiens) (chain, as listed by the source mutant): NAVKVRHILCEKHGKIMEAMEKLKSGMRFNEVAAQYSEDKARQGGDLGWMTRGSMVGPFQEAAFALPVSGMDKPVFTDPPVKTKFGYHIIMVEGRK

Substance: PPIase domain (Par17Δ1-60) (Homo sapiens)
- kcat/Km: 3700 M⁻¹ s⁻¹
